The assay concerns the target Ape4 (full length) of the Ape4-Nbr1 fusion protein (S. pombe). Kind of assay: cryo-EM structure.

As a reminder, the stoichiometry N is the number of molecules, sites or subunits per partner or assembly.

Molecule “Ape4 (full length) of the Ape4-Nbr1 fusion protein (enzyme)” yielded a stoichiometry N of 12.

B1: Nbr1(53-129) of the Ape4-Nbr1 fusion protein (domain or fragment)
chain: PTLRSSSVACNTCLKIIRNDSFHCTKCFDFDVCRDCYAKQAFLHPCPKPHFVLVRSSIPSVASLTCSVNSMSVSPQS
Consider B1, for which the stoichiometry N (Nbr1-ZZ1 molecules per Ape4 dodecamer) was 12.

Values taken from paper doi:10.1101/2021.02.07.430097.
